The values below come from patent publication US20240018188A1.

For this assay, the target named is human RAD51 (human) (UniProt Q06609). Description: cell-based or functional assay.

[ ]: non-standard residue; d: D form. dNle = CCCC[C@@H](N)C(=O)O

Chain of human RAD51 (human) (Q06609 2-339 limits assumed): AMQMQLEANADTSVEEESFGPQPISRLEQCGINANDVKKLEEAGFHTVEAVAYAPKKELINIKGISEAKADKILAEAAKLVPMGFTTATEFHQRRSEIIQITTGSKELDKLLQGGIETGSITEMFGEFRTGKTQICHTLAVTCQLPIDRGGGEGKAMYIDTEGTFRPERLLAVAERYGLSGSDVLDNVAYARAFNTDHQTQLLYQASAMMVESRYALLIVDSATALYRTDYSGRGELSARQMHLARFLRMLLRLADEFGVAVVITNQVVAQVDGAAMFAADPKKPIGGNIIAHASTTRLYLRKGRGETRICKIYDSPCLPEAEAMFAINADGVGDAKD

B1: Compound 11 (peptide)
peptide: Ac-[dL][dNle][dR]G[dV][dR][dL][dR][dV]G[dL][dR][dK][dR][dR][dR][dR]G[dY]-NH2
SMILES: CCCC[C@@H](NC(=O)[C@@H](CC(C)C)NC(C)=O)C(=O)N[C@H](CCCNC(=N)N)C(=O)NCC(=O)N[C@@H](C(=O)N[C@H](CCCNC(=N)N)C(=O)N[C@H](CC(C)C)C(=O)N[C@H](CCCNC(=N)N)C(=O)N[C@@H](C(=O)NCC(=O)N[C@H](CC(C)C)C(=O)N[C@H](CCCNC(=N)N)C(=O)N[C@H](CCCCN)C(=O)N[C@H](CCCNC(=N)N)C(=O)N[C@H](CCCNC(=N)N)C(=O)N[C@H](CCCNC(=N)N)C(=O)N[C@H](CCCNC(=N)N)C(=O)NCC(=O)N[C@H](Cc1ccc(O)cc1)C(N)=O)C(C)C)C(C)C
Consider B1, for which the IC50 was found to be 9 µM. That is a single-digit micromolar value.

B2: Compound 9 (peptide)
peptide: Ac-[dL][dNle][dR][dS][dV][dR][dL][dR][dV]G[dL][dR][dK][dR][dR][dR][dR][dR][dR][dR]-NH2
SMILES: CCCC[C@@H](NC(=O)[C@@H](CC(C)C)NC(C)=O)C(=O)N[C@H](CCCNC(=N)N)C(=O)N[C@H](CO)C(=O)N[C@@H](C(=O)N[C@H](CCCNC(=N)N)C(=O)N[C@H](CC(C)C)C(=O)N[C@H](CCCNC(=N)N)C(=O)N[C@@H](C(=O)NCC(=O)N[C@H](CC(C)C)C(=O)N[C@H](CCCNC(=N)N)C(=O)N[C@H](CCCCN)C(=O)N[C@H](CCCNC(=N)N)C(=O)N[C@H](CCCNC(=N)N)C(=O)N[C@H](CCCNC(=N)N)C(=O)N[C@H](CCCNC(=N)N)C(=O)N[C@H](CCCNC(=N)N)C(=O)N[C@H](CCCNC(=N)N)C(=O)N[C@H](CCCNC(=N)N)C(N)=O)C(C)C)C(C)C
For the molecule B2, the IC50 is 20 µM.
